Results taken from patent US20240400652A1.
Read-outs that look alike come from different tables or passages of the source.

Tests used:
[1] = target: Deglycosylated SARS-CoV-2 RBD (SARS-CoV-2) (UniProt P0DTC2)
[2] = target: SARS-CoV-2 Spike protein on pseudotyped virus (SARS-CoV-2) (UniProt P0DTC2); assay: cell-based or functional assay
[3] = target: SARS-CoV-2 Spike protein on pseudotyped virus (SARS-CoV-2) (UniProt P0DTC2); assay: cell-based or functional assay; remark: listed apart in the source

“S306 G56A (as printed in Table 5) (antibody)” was tested, and the Kd [1] was 0.7 nM, the koff [1] was 0.00024 s⁻¹ and the kon [1] was 340000 M⁻¹ s⁻¹.
sotrovimab (antibody) was tested, and the EC50, neutralization of pseudotyped virus [2] was 0.0241 µg/mL.
Work on S309 LS (antibody) yielded an IC50, neutralization of SARS-CoV-2pp, DBT-ACE2 cells [2] of 3.9 nM, a maximum neutralization, VSV pseudotype, 293T ACE2 cells [2] of 34% and a maximum neutralization, VSV pseudotype, A549-ACE2-TMPRSS2 clone 5 cells [2] of 65%. It also gave a maximum neutralization, VSV pseudotype, A549-ACE2-TMPRSS2 clone 10 cells [2] of 42%, a maximum neutralization, VSV pseudotype, Huh7 cells [2] of 78% and a maximum neutralization, VSV pseudotype, MRC5-ACE2-TMPRSS2 cells [2] of 45%. For the same substance, the maximum neutralization, VSV pseudotype, Vero E6-TMPRSS2 cells [2] was 96%, the maximum neutralization, VSV pseudotype, Vero E6 cells [2] was > 99% and the IC50, neutralization of SARS-CoV-2pp, DBT-ACE2 cells [3] was 3.82 nM.
